Data as given in the nanobody polyreactivity screen of Harvey et al. (2022).

Experiment: yeast display, Sf9 membrane polyspecificity reagent, FACS + sequencing; frameworks hold sequencing errors
Outline: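 Synthetic nanobody libraries on Saccharomyces cerevisiae BJ5465 were galactose-induced for 36–48 hours, stained 1 hour at 4 °C with 10% biotinylated, detergent-solubilized Sf9 membrane reagent and enriched on streptavidin microbeads. FACS then separated cells into low and high (top ~1%) gates by anti-HA (expression) and streptavidin (reagent binding) fluorescence. Genes were colony-PCR amplified, MiSeq 2 × 250 sequenced and CDR-length filtered. A clone's polyreactivity label is that of its gate of origin.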

Sequence	polyreactivity (PSR sort gate)
QVQLVESGGGLVQAGGTLRLSCAASGFIFENYAMGWYRQAPGKERELVAAISSSGGSTYYADSVKGRFTISRDNAKNTVYLQMNSLKPEDTAVYYCAKDYAPSATKLHYWGQGTQVTVSS	low polyreactivity
QVQLVESGGGLVQAGGTLRLSCAASGFLFVFYDMGWYRQAPAKERELVAGITRNDGSTYYADSVKGRFKISRDNAKNTVYLLMNSLKPEDTAVYYCAADRVRRNDKLAYDYWGQGTQVTVSS	low polyreactivity
QVQLVESGGGLVQAGGTLRLSCAASGFTFGYYAMGWYRPAPGKERELVAAISSRGGTTYYADSVKGRFTISRDNAKNTVYLQMNSLKPEDTAVYYCAKDSFRNIYNYWGQGTQVTVSS	high polyreactivity
QVQLVESGGGLVQAGGTLRLSCAASGGIFSYAMGWYRQAPGKERELVADINSDGSTTYADSVKGRFTISRDNAKNTVYLQMNSLKPEDTAVYYCAADTYFWSYSYNYYYWGQGTQVTVSS	low polyreactivity
QVQLVESGGGLVQAGGTLRLSCAASGIIFHWYAMGWYRQAPGKERELVAAITQSGGSTSYADSVKGRFTISRDNAKNTVYLQMNSLIPEDTAVYYCNAREVRDEYNYWGQGTQVTVSS	low polyreactivity
QVQLVESGGGLVQAGGTLRLSCAASGITLKLYVMGWYRQAPGKERELVAAISRRGGSTYYADSVKGRFTLSRDNAKYTVYLQMISLKPEDTAVYYCAKDGTQYERKDPAYGYWGQGTQVTVSS	high polyreactivity
QVQLVESGGGLVQAGGTLRLSCAASGLIFKKYTMGWYRQAPGKERELVASISKSGGSTYYADSVKGRFTISRDNAKNTVYLQMISLKPEESAVYYCNRVTHYIRFDYWGQGTQVTVSS	low polyreactivity
QVQLVESGGGLVQAGGTLRLSCAASGLIFVRYAMGWYRQAPGKERELVATITDGGSKYYADSVKGRFTISRDNAKNTVYLQMNSLKPEDTAVYYCNKDRVSVRYEYWGQGTQVTVSS	low polyreactivity
QVQLVESGGGLVQAGGTLRLSCAASGRIFGPYAMGWYRQAPWKERELVAAISFSGSGTYYADSVKGRFTISRDNAKNTVYFQMNSLKAEDTAVYYCAATSRKIVAFDHDYWGQGTQVTVSS	low polyreactivity
QVQLVESGGGLVQAGGTLRLSCAASGRTFRQNAMGWYRQAPGKERELVAAISVNGGRTYYADSVKGRFTITRDNAKITVYLQMNSLKPEDTAVYYCAAESYRIPRRSGYDYWGQGTQVTVSS	high polyreactivity
QVQLVESGGGLVQAGGTLRLSCAASGSIFAHYTMGWYRQAPGKERELVAVISRSGARTYYADSVKGRFTISRDNAKNTVYLQMNSLKPEDTAVYYCAADRTLEEDYWGQGTQVTVSS	low polyreactivity
QVQLVESGGGLVQAGGTLRLSCAASGSIFTHYAMGWYRQAPGKERELVAAISRRGGSTYYADSVKGRFTNSRDNAKNTVYLQMNSLKPEDSAVYYCAKSPDTAKEYDYWGQGTQVTVSS	high polyreactivity
QVQLVESGGGLVQAGGTLRLSCAASGSTFGYPMGGYRQSPGKERELVAAMTSTGGSTYYADSVKGRFTISRDNAKITVYLQMNSQKPEDTAVYYCAADAYWIRSRFLYRIRYNYWGLGTQVTVSS	high polyreactivity
QVQLVESGGGLVQAGGTLRLSCAASGSTFGYYTMGWYRQAPGKERELVAAITWSGGSTYYADSVKGRFTISRDNAKKTVYLQMNSLKAEDSAVSYCAADDYWTPFGYSGQGTQVTVSS	low polyreactivity
QVQLVESGGGLVQAGGTLRLSCAASGSTFIGNAMGWYIQAPGKERELVAAITRSGGSTFYADSVKGRFTISRDNAKNTVYLQMNSLKPEDTAVYYCAARNGAYPALKEGDYWGQGTQVTVSS	high polyreactivity
QVQLVESGGGLVQAGGTLRLSCAASGSTFTGNAMGWYRQAPGKERELVASISTGGSTNYADSVKGRFTISRDNAKNTVYLQMNSLKPEDTAVYYCAKRIRYNWTFDDWGQGTQVTVSS	low polyreactivity
QVQLVESGGGLVQAGGTLRLSCAASGSTFYRYAMGWYRTAPGKERELVATITRSGGSTYYADSVKGRFTISRDNAKNTVYLQMNSLKPEDTAVYYCAARGWYKSDYWGQGTQVTVSS	low polyreactivity
QVQLVESGGGLVQAGGTLRLSCAASGSTFYSYAMGWYRQAPGKERELVAAISGRGGTTYYADSVKGRFTISRDNAKNTVYLQMNSLKPEDTAVYYCAAEGWDWWTDDDYWGQGTQVTVSS	high polyreactivity
QVQLVESGGGLVQAGGTLRLSCAASGVIFKVYGMRWYRQAPGKERELVAAISWTTGGTYYADSVKGRFTISRDNAKNTVYLQMNSLKPEDTAVYYCNAPSWYYSGVRYDYWGQGTQVTVSS	high polyreactivity
QVQLVESGGGLVQAGGTLRLSCAASRITFWYYARGWYIQAPGKERELVAAITSGGSTYYADSVKGRFTISRDNAKNTVYLQMNSLKPEDTAVYYCAKDSVWGAKNLTSYKYYYWGQGTQVTGSS	low polyreactivity
QVQLVESGGGLVQAGGTLRLSCADSGSTIRNYAMGWYRQAPGKERELVATISASGGSTYYADSVKGRFTISRDNAKNTVYLQLNSLKPEDTAVYYCNAVVKLWGLVIPPGDYDYWRQGTQVTVSS	high polyreactivity
QVQLVESGGGLVQAGGTLRLSCAPSARTFDRNAMGWYRQAPGKERELVASISWVGTSTYYADSVKGRFTISRDNAKNTVYLQMNSLKPDDSAVYYCAARRVKYISLDYWGQGTQVTVSS	low polyreactivity

Sequence	polyreactivity (PSR sort gate)
QVQLVESGGGLVQAGGTLRLSCGASGGTFYLYTMGWYRPAPGKERELVAAISRGGSTNYADSVKGRFTISRDNAKNTVYLLMNSLIPEDTAVFYCAAVRSTGFRYYYADEYDYWGQGTQVTVSS	low polyreactivity
QVQLVESGGGLVQAGGTLRLSCGASGLIFTSNAMGWYRQAPGKESELVAAISNTGGSTYYADSVKGRFTISRDNSKNTVYLQMNSLKPEDTAVYYCAVDPAAGLTNVFYLKYFGYDFWGQGTQVTVSS	low polyreactivity
QVQLVESGGGLVQAGGTLRLSCPASGRNILGYAMGWYRPAPGKERELVAALRRSGGHTFYADSVKGRFTISRDNAKNRVYFQMNSLKPEDTAVYYCAASTSGAIRRDGFWGQGTQVSVSS	low polyreactivity
QVQLVESGGGLVQAGGTLRLTCAASGSIFSAYAMGWYRQEPGKEREFVAAITRRGGNTYYADSVKGRFTISRDNAKNTVYVQMNSLKPEDTAVYYCAAVAGGGPFDYWGQGTQVTVSS	low polyreactivity
QVQLVESGGGLVQAGRILRLSCAASGRTFDSNAMGWYRQAPGKERELVAAISYGGGTTHYADSVKGRFTISRDNAKNTVYLQMNSLKPEYTAVYYCSADPEHLCESVTIGEYDYWGQGTQVTLSS	low polyreactivity
QVQLVESGGGLVQAGRSHRLSFAASGFTLKGYAMGWYRQAPGKDRELVAAISWNGGRTYYADSVKGRFTISRDNAKNTVYLQMNSLKPEVTAVYYCAAVYRFYSPTKYTYDYWGQGTQVTVSS	high polyreactivity
QVQLVESGGGLVQAGRSLLLICAASGSTFAYYAMGWYRQAPGKERELVAAINYRATRTYYADSVKGRFTISRDNAKNTVYLQMNSLKPDDTAVDYCIAEPAYYRSNRWPRFEYWGQGTQVTVSS	high polyreactivity
QVQLVESGGGLVQAGRSLRISCAASGYTFIYYPMGWYRPAPGKERELVATISIDGSTNYADSVKGRFTISRDNAKNTVYLQMNILKPEDTAVYYCNLERYEDYDYWGQGTQVTVSS	high polyreactivity
QVQLVESGGGLVQAGRSLRLSCAASGITFGRNTMGWYRQAPGKERELVAAIDSGGNTYADSVKGRFTISRDNAKNTVYLQMNSLKPEDTAVYYCAVDGGEFSSYGYWGQGTQVTVSS	low polyreactivity
QVQLVESGGGLVQAGRSLRLSCAASGLIFPWNAMGWYRQAPGKQRELVAAINGRDGSTYYADSVKGRFTISRDNAKNTVYLQMNSLKPEDTAVYYCAKGPSGVRSYREYDSWGQGTQVTVSS	low polyreactivity
QVQLVESGGGLVQAGRSLRLSCAASGLTFSLYAMGWSRQAPGKERELVAANSWTGGSTYYADSVKGRFTISRDNAKNTVYLQMNSLKPEDTAVYYCNARYTLFARYGYDYWGQGTQVTVSS	low polyreactivity
QVQLVESGGGLVQAGRSLRLSCAASGRIFGTYAMGWYRQAPGKERELVAAITQSGGRTYYADSVKGRFTISRDNAKNTVYLQMNSLKPEDSAVYFCNIVTYRGIGLGYDYWGHGTQVTVSS	high polyreactivity
QVQLVESGGGLVQAGRSLRLSCAASGRIFIWYRMGWYRQAPGKERELVSAITRRGGSTYYADSVKGRFTISRDNAKNTVYLQMNSLKPVDTAVYYCNADAIVSPYRLWTVTYSYWGQGTQVSVSS	low polyreactivity
QVQLVESGGGLVQAGRSLRLSCAASGRTFVYYAMGWYRQAPGKERELVATISSSDSTNYADSVKGRFTISRDNAKNTVYLQMNSLKPEDTAVYYCAAGPKGGGYYDPFDYWGQGTQVTVSS	low polyreactivity
QVQLVESGGGLVQAGRSLRLSCAASGSIFTYYAMGWYRQAPGKERELVAAINWSDSSTYNADSVKGRFTISRDNAKNTVYLQMNSLKPEDTAVYDCAATNYADGDYWGQGTQVTVSS	low polyreactivity
QVQLVESGGGLVQAGRSLRLSCAASGSILGGNAMGWYRQAPGKDRELVAAITFSGGGTYYADSVKGRFTISRDNAKNTVDFQMNSLKPEDTAVYYCAADKVGYTYEFDYWGQGTQVTVSS	low polyreactivity
QVQLVESGGGLVQAGRSLRLSCAASGSILLYYTMGWYRQAPGKERELVASITSGGRTYYADSVKGRFTISRDNAKNTVYLQMNSLKPEDTAVYYCAADVWKLYDYWGQGTQVTVSS	low polyreactivity
QVQLVESGGGLVQAGRSLRLSCAASGSTYGYYAMGWSRQAPGKERELVAAISSTGGRTYYADSVKGRFTISRDNAKNTVYVQMNSLKPEDTAVYYCAARQLSSHYDYWGQGPQVTVSS	low polyreactivity
QVQLVESGGGLVQAGRSLRLSCAATGLIFLLNAMGWYRQAPGKERELVAVITRVGDTNYADSVKGRFTISRDNAKNTVYLQMNSLKPEDTAVYSCAATSLTYEGYYWRQGTQVTVSS	low polyreactivity
QVQLVESGGGLVQAGRSLRLSCAPSGSTFKHNAMGWYRQAPGKERELVATITLRDGSTYYADSVKGRFTISRDNAKNTVYLQMNSLKPEDTAVYYCATYYSAINYGWSKTILYDYWGQGTQVTVSS	low polyreactivity
QVQLVESGGGLVQAGRSLRLSCASSGSPFDPYGKGRYRQAPGKEWEWVAAITASGRTNYADSVKGRFTISRDTAKNTVYLQMNSLKPEDTAFYYCATRKELYFYRGYEYWGQGTQVTVSS	low polyreactivity
